From PMC3199381 (The EMBO Journal, 2011)
Like-named read-outs stand apart in the source and are kept apart here.

How the values were obtained:
[1] = biological target: MglA from Thermus thermophilus HB8, wild type (Thermus thermophilus HB8); experiment: crystal structure
MglA·MglB^A5 complex = biological target: T1, MglA·MglB^A5 complex (Thermus thermophilus, UniProt Q5SJ82); experiment: X-ray crystal structure, […] Å; assay type: binding; conditions: with AlF4- as transition state mimic
T1 sequence (Q5SJ82 1-196): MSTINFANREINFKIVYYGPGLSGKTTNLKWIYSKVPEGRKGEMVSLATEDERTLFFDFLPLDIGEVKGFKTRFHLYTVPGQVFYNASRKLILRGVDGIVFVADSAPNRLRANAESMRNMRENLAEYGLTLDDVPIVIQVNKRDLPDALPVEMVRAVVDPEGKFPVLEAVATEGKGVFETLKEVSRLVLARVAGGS
T1 sequence (Q5SJ83 6-139 E14A/R15A/G65S/R124A/E127A/R131A partner): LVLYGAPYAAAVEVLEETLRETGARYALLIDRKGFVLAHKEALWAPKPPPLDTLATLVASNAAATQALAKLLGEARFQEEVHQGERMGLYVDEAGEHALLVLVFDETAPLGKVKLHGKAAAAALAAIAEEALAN

T.t.MglA = biological target: T2, T.t.MglA (Thermus thermophilus, UniProt Q5SJ82); experiment: X-ray crystal structure, […] Å; assay type: binding; conditions: no Mg2+ detected at the nucleotide
T2 sequence (Q5SJ82 1-196): T1 sequence (Q5SJ82 1-196)

[2] = biological target: MglB from Thermus thermophilus HB8, residues 6-139 (Thermus thermophilus HB8); experiment: crystal structure
[3] = biological target: MglB from Thermus thermophilus HB8, residues 6-139 (Thermus thermophilus HB8); experiment: crystal structure; remark: listed apart in the source
[4] = biological target: MglA from Thermus thermophilus HB8, wild type (Thermus thermophilus HB8); experiment: SEC
[5] = biological target: MglB from Thermus thermophilus HB8, residues 6-139 (Thermus thermophilus HB8); experiment: SEC
[6] = biological target: MglA from Thermus thermophilus HB8, wild type (Thermus thermophilus HB8); experiment: fluorescence polarisation
[7] = biological target: MglA from Thermus thermophilus HB8, wild type (Thermus thermophilus HB8); experiment: fluorescence polarisation; remark: listed apart in the source

MglB^A5 (E14/R15/R124/E127/R131A), residues 6-139 (domain or fragment)
stoichiometry N (MglB per MglA) [1]: 2

Nc1nc2c(ncn2[C@@H]2O[C@H](COP(=O)(O)OP(=O)(O)O)[C@@H](O)[C@H]2O)c(=O)[nH]1 [GDP]
X-ray crystal structure, 2.2 Å (MglA·MglB^A5 complex): 3T12 (MglA·GDP·AlF4-·MglB^A5)
X-ray crystal structure, 1.9 Å (T.t.MglA): 3T1O (MglA·GDP)

MglB from Thermus thermophilus HB8, residues 6-139 (domain or fragment)
stoichiometry N [2]: 4
stoichiometry N [3]: 2
stoichiometry N (MglB per MglA) [4]: 2
stoichiometry N [5]: 2
Kd [6]: 2 µM
Kd [7]: 3.2 µM
stoichiometry N (MglB monomers per MglA) [7]: 2

MglB^A68/72R, residues 6-139 (domain or fragment)
Kd [7]: 34.6 µM
